Holding throughout (test): fluorescence anisotropy; FA: 50 mM HEPES-Na pH 7.4, 150 mM NaCl, 1 mM DTT, 20 C, 500 pM FM-DNA, Hill fit; EMSA: 5 nM FM-DNA, 8% PAGE, 0.33x TBE
Background: Polarisation of emitted light reports the rotation of a fluorescent probe.

In one data set the target is T1, TFAM (UniProt Q00059 43-246).
T1 sequence: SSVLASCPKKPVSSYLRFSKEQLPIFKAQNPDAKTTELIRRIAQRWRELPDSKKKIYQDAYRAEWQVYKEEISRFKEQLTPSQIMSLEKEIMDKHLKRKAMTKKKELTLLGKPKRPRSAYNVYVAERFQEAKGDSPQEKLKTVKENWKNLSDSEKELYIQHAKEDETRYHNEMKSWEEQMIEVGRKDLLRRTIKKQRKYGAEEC
The conditions noted are these: protein: recombinant, label: 5'-6FAM.

For the next data set, the target named is T2, TFAM HMG Box A (UniProt Q00059 50-118).
T2 sequence: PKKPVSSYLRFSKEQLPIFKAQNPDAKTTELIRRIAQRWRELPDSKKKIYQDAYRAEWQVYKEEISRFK
Conditions: protein: recombinant, label: 5'-6FAM.

The next data set concerns the target T3, TFAM HMG Box B (UniProt Q00059 155-219).
T3 sequence: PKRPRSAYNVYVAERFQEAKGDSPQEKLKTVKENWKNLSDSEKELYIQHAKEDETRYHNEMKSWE
Conditions: protein: recombinant; label: 5'-6FAM; G-quadruplex possible (previous studies).

[1] abbreviates: G-quadruplex possible (previous studies).

B1: ssLSP (PD) (ssDNA)
DNA: TTAACAGTCACCCCCCAACTAACAC
For orientation: Kd means the constant that tells how readily two partners part at equilibrium. Regarding B1, the Kd in the data set with TFAM (single-stranded) was 10.2 ± 0.5 nM.

B2: CpG-B (PS) (XNA)
DNA: TCGTCGTTTTGTCGTTTTGTCGTT
modifications: phosphorothioate (positions in Fig 1A)
Take B2: the values for the Kd with TFAM (single-stranded by CD) and in the data set with TFAM HMG Box A (single-stranded by CD) were 1.3 ± 0.03 nM and 10.4 ± 1 nM, respectively.

B3: ssLSP (PS) (XNA)
DNA: TTAACAGTCACCCCCCAACTAACAC
modifications: phosphorothioate (positions in Fig 1A)
With B3, in the data set with TFAM (single-stranded), the Kd is 5.06 ± 0.1 nM.

B4: CpG-A (PS) (XNA)
DNA: GGGGACGACGTCGTGGGGGGG
modifications: phosphorothioate (positions in Fig 1A)
Regarding B4, the Kd amounted to 1.83 ± 0.07 nM in the data set with TFAM (setting [1]), 71.2 ± 38 nM with TFAM HMG Box A (setting [1]) and 231 ± 30 nM with TFAM HMG Box B.

B5: CpG-B (PD) (ssDNA)
DNA: TCGTCGTTTTGTCGTTTTGTCGTT
Turning to B5, the Kd with TFAM (single-stranded) was 4.66 ± 0.2 nM.

The values above are taken from paper PMC4900672, “Mechanism of Mitochondrial Transcription Factor A Attenuation of CpG-Induced Antibody Production”.
